{
  "source": "paper PMC7840181",
  "target": "CLAG3-tv2 (CLAG3h with C-terminal His10-FLAG-thrombin-TEV-HA-twinstrept-BC2 multi-tag) (Plasmodium falciparum)",
  "test": "native MS; endogenous RhopH complex purified via CLAG3-tv2 (FLAG, then Ni-NTA), exchanged into 200 mM ammonium acetate pH 7.5, 0.01% Tween-20; Exactive Plus EMR",
  "data": [
    {"substance": "RhopH3 (from UniProt Q8I395 25-897) (natural protein)", "values": [
      {"measurement": "stoichiometry N", "result": 1}
    ]},
    {"substance": "RhopH2 (from UniProt C0H571 20-1378) (natural protein)", "values": [
      {"measurement": "stoichiometry N", "result": 1}
    ]}
  ]
}
